Target: T1, LPE1 (mature, without transit peptide) (Arabidopsis thaliana, UniProt Q9SNB7 69-665)
T1 sequence: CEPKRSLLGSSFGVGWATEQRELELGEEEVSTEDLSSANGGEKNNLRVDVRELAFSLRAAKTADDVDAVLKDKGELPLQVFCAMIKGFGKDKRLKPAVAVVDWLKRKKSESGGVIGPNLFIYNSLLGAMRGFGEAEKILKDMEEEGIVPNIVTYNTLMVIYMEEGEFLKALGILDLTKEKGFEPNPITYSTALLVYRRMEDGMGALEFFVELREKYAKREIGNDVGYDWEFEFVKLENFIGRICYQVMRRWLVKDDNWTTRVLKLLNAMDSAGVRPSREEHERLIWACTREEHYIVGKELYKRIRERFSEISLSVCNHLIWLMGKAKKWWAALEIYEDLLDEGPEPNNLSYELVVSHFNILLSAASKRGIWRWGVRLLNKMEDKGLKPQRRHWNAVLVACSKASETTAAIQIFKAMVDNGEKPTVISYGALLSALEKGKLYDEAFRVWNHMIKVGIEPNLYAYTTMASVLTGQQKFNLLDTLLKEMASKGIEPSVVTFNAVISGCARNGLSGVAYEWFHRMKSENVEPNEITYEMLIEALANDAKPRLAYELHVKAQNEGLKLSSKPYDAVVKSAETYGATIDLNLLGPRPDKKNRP
Assay: EMSA

B1: psbA 5' UTR probe (full length, first 82 nt) (ssRNA)
RNA: UUCAUAACAAGCUCUCAAUUAUCUACUUAGAGAAUUUGUGCGCUUGGAGUCCCUGAUUAUUAAAUAAACCAAGGAUUUUACC
  binding result: binds

From PMC6042084
